{"source": "patent US20100098706A1", "about": "(LFB BIOTECHNOLOGIES, published 2010)", "key": {"[1]": {"target": "T1, human CD16 receptor (FcgammaRIIIa) (human, UniProt P08637 17-254)", "T1 construct": "whole, on cells; also called Fcgamma receptor RIIIa; FcγRIIIA", "T1 sequence (P08637 17-254)": "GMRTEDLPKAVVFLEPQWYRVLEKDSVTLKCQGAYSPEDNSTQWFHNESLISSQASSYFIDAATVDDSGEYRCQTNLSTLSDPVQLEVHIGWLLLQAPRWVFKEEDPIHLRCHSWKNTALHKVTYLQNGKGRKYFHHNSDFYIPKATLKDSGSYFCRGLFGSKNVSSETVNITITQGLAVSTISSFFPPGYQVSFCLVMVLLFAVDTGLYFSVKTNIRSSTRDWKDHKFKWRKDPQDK", "experiment": "flow cytometry on NK cells; competition with 3G8-PE; antibody at 50 µg/ml; reference Rituxan®", "procedure": "The binding to the CD16 receptor is evaluated by a murine anti-CD16 antibody (3G8) competition test.\nThe effector cells (NK cells) are purified by the negative depletion kit (NK Cell Isolation Kit, Myltenyi, Paris, France), starting with peripheral blood from healthy donors. Then, the NK cells are incubated with variable concentrations (0, 10 and 50 μg/ml) of antibodies to be evaluated and the anti-CD16 antibody (3G8) coupled to a fluorochrome (3G8-PE) at a fixed concentration.\nAfter washing, the binding of the 3G8-PE to the CD16 receptor of the NK cells is evaluated by flow cytometry."}, "[2]": {"target": "T1, human CD16 receptor (FcgammaRIIIa)", "experiment": "cell-based or functional assay"}, "[3]": {"target": "T1, human CD16 receptor (FcgammaRIIIa)", "experiment": "cell-based or functional assay", "remark": "listed apart in the source"}, "[4]": {"target": "T2, human LDL (Low Density Lipoprotein) receptor (human, UniProt P01130 22-860)", "T2 construct": "whole, on cells; no recombinant LDL-R was tested; also called LDL-R; human LDL-R", "T2 sequence (P01130 22-860)": "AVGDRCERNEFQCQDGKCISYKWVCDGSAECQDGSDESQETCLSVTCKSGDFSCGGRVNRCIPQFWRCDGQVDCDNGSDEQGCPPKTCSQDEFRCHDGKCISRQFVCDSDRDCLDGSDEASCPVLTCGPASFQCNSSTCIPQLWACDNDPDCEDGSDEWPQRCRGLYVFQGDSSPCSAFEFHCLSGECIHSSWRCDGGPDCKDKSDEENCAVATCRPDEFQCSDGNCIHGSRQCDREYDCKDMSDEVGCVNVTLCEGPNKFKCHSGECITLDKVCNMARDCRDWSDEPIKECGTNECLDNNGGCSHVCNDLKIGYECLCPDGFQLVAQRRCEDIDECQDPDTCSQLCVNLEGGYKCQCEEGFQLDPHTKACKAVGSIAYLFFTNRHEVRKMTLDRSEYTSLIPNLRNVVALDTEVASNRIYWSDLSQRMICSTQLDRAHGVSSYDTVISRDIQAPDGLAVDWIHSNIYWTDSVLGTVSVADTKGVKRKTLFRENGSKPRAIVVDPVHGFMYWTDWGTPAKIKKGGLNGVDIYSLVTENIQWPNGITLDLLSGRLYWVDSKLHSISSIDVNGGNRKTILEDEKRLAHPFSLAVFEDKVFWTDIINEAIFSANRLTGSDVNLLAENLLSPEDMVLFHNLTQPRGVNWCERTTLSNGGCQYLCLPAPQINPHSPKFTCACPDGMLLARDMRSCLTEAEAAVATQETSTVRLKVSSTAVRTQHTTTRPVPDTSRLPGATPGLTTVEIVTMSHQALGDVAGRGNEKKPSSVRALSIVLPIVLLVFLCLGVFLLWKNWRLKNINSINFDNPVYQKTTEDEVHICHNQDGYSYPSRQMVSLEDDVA", "experiment": "binding to melanoma cell lines; method not described"}}}
{"binder": "anti-LDL-R chimeric antibody EMAB604 (antibody, human IgG1, kappa, The cloned V fragments contain the natural signal peptide of C7; also called anti-LDL-R (EMAB604); chimeric antibody C7) heavy: not shown light: DVLMTQTPLSLPVSLGDQASISCRSSQSILHSSGIAYLEWYLQKPGQSPKLLIYKVSNRFSGVPDRFSGSGSGTDFTLKISRVEAEDLGVYYCFQGSHVPWTFGGGTKLEIKRTVAAPSVFIFPPSDEQLKSGTASVVCLLNNFYPREAKVQWKVDNALQSGNSQESVTEQDSKDSTYSLSSTLTLSKADYEKHKVYACEVTHQGLSSPVTKSFNRGEC", "values": [{"measurement": "fold binding against Rituxan®", "setting": "[1]", "value": "~3", "unit": "fold"}, {"measurement": "ADCC EC50, GUY 17.2 target cells, NK effector cells", "setting": "[2]", "value": 0.45, "unit": "µg/mL"}, {"measurement": "ADCC EC50, HT-144 target cells, NK effector cells", "setting": "[3]", "value": 0.45, "unit": "µg/mL"}, {"measurement": "binding result", "setting": "[4]", "value": "binds"}]}
